Data taken from the supplement of paper PMC9112550, “Optimization of the antimicrobial peptide Bac7 by deep mutational scanning” (BMC Biology, 2022).

System: Escherichia coli TOP10
Test: shrunken log2 fold change of peptide-encoding DNA abundance (4.5 h post-induction vs induction); higher = less antimicrobial activity (less host growth inhibition)
Settings: time post-induction: 4.5 h; library: site-saturation at positions 5, 18, 19, 20
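Also: peptides expressed intracellularly from a pBAD plasmid library in pooled LB shake-flask culture, induced with 0.3% L-arabinose, DNA abundance read by NGS, three biological replicates, DESeq2 with apeglm shrinkage.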

Sequence	shrunken log2 fold change
RRIRTRPPRLPRPRPRPQPVPRP	-0.0826
RRIRNRPPRLPRPRPRPMIIPRP	0.0546
RRIRVRPPRLPRPRPRPVTVPRP	-0.0359
RRIRMRPPRLPRPRPRPRSYPRP	0.068
RRIRRRPPRLPRPRPRPVMVPRP	-0.153
RRIRVRPPRLPRPRPRPYGEPRP	-0.204
RRIRTRPPRLPRPRPRPKSIPRP	-0.194
RRIRWRPPRLPRPRPRPNQKPRP	-0.0347
RRIRKRPPRLPRPRPRPQTMPRP	0.0588
RRIRERPPRLPRPRPRPHNHPRP	-0.734
RRIRCRPPRLPRPRPRPHNRPRP	-0.512
RRIRTRPPRLPRPRPRPNFHPRP	-0.19
RRIRHRPPRLPRPRPRPEILPRP	-0.00654
RRIRYRPPRLPRPRPRPCYGPRP	-0.211
RRIRHRPPRLPRPRPRPERMPRP	-0.0151
RRIRVRPPRLPRPRPRPCSIPRP	-0.0267
RRIRFRPPRLPRPRPRPCEHPRP	-0.00783
RRIRRRPPRLPRPRPRPMQEPRP	-0.206
RRIRVRPPRLPRPRPRPIYYPRP	-0.455
RRIRQRPPRLPRPRPRPRCRPRP	0.0135
RRIRHRPPRLPRPRPRPQSIPRP	-0.0188
RRIRGRPPRLPRPRPRPVMMPRP	0.0154
RRIRCRPPRLPRPRPRPASHPRP	-0.241
RRIRDRPPRLPRPRPRPWFWPRP	-0.0329
RRIRYRPPRLPRPRPRPVTSPRP	-0.168

Sequence	shrunken log2 fold change
RRIRCRPPRLPRPRPRPTWRPRP	1.4
RRIRWRPPRLPRPRPRPVYRPRP	-0.0858
RRIRERPPRLPRPRPRPGPFPRP	-0.128
RRIRSRPPRLPRPRPRPMGAPRP	0.188
RRIRRRPPRLPRPRPRPQDNPRP	-0.668
RRIRGRPPRLPRPRPRPFSKPRP	0.164
RRIRYRPPRLPRPRPRPQVFPRP	0.0195
RRIRGRPPRLPRPRPRPDLVPRP	0.529
RRIRARPPRLPRPRPRPPGNPRP	0.574
RRIRLRPPRLPRPRPRPSAWPRP	-0.0766
RRIRARPPRLPRPRPRPKVPPRP	0.412
RRIRVRPPRLPRPRPRPWENPRP	-0.0208
RRIRNRPPRLPRPRPRPVSRPRP	-0.152
RRIRWRPPRLPRPRPRPCTCPRP	0.0236
RRIRSRPPRLPRPRPRPYKPPRP	-0.195
RRIRHRPPRLPRPRPRPGCEPRP	0.103
RRIRPRPPRLPRPRPRPTGWPRP	0.519
RRIRARPPRLPRPRPRPTYIPRP	-0.438
RRIRWRPPRLPRPRPRPVLGPRP	0.241
RRIRSRPPRLPRPRPRPPLVPRP	-0.0483
RRIRTRPPRLPRPRPRPQIIPRP	-0.358
RRIRRRPPRLPRPRPRPVDRPRP	0.0916
RRIRTRPPRLPRPRPRPCQTPRP	-0.0283
RRIRFRPPRLPRPRPRPNKEPRP	0.0307
RRIRTRPPRLPRPRPRPRPWPRP	0.0956
